The data set is described as follows: label from the status in PepcDB records.
Take “TIDIDLQKKVESLLEKQISKLRSQGAKDMDNALMVVQNPKNGDILAIAGKQIDKQGKLKDYDIGNFTAQYTVGSSVKGGTLLAGYQNKAINVGETMVDEPLKFQGGLTKRSYFNKNGHVSIDDKQALMHSSNVYMFKTALKLAGDPYTSGMSLPNNIADAGRKLRKGLNQVGLGLKTGIDLPNETPGQIEPLTNNPGNYLDLAIGQYDTYTPLQLSQYVSTIANDGYRIQPHIGLSIYESTNKDETGPLKRKIKGNVLNKVNNSNDEIKEVQEGFKMAFNEKQGTGYASFRNTVVPSAGKTGTAEVFQDGEPRVNSTYIGYAPVDDPKLSFSIVYTNQPVPPPWLNGGDLGRDVINYYFKDKDNKKDDSQSNNEEKED”: the protein production entry was “failed”.
The value for “TINSKFQSDVSAALKKYMGTDLTTGGYAAVMNPKTGGVYAMAGWDRNVKTGKLTQNDLAAIQDPIVMGSAVKPAMVSMALQAGVITPTSSTQDDQIIKLAGTAEKHSDFNPTGVKIPLTAEQALEDSSNTYMIQLALKMNGTPYVSGMSLNVSSNIWQKMRNGFGEFGLGSRTGIDLPGETAGYKGSITGSLASSFIDEAFGQYDTYSVIQMARFVSTIANGGYLVQPKVVASVLKSGKNGVRSSVASEVSPTIQGYVKMNNAQWNVIKTGMWDVANGSSQYNTGGTLIHELSPKVAAKTGTAESFVDGQQTQNDTLIMYSPYAPFAIAIAYVGDKVDSFGAVEKAAAAIYNAFWKDVMPKPND” was “failed”; that for “TKIKSVRTRVWNWTGPTVPPQGNFCTNASDALWIQGDAMASFRFHQWLTCEVETEDGTIGIGNAALAPNVVKQAIDEWYAPLVIGEDPFDYAYLWEKMYRRTHAWGRKGIGMTAISAIDIAIWDLMGKLVGKPVFKLLGGRTKEKIPVYYSKLYADSIPAMQAEAEEAQKHGYQGYKTRFGYGPKDGPAGMRENLKRVEALREVLGYDVDLMLECYMGWNLDYTKRMLPKLERFEPRWLEEPVIADDVAGYAELNAMGIVPISGGEHEFSVMGCAELINRKAVSVLQYDTNRVGGITAAQKINAIAEAAQIIVIPHAGQMHNYHLTMANMNCPISEYFPVFDVEVGNELFYYIFDGDPEAVDGYLQLDDDTPGLGITISDAHLKHFEITE” was “not failed”; that for “TKTTTQGAKSGVFDTVDEAVQAAVIAQNCYKEKSLEERRNVVKAIREALYPEIETIATRAVAETGMGNVTDKILKNTLAIEKTPGVEDLYTEVATGDNGMTLYELSPYGVIGAVAPSTNPTETLICNSIGMLAAGNAVFYSPHPGAKNISLWLIEKLNTIVRDSCGIDNLIVTVAKPSIQAAQEMMNHPKVPLLVITGGPGVVLQAMQSGKKVIGAGAGNPPSIVDETANIEKAAADIVDGASFDHNILCIAE” was “not failed”.
In the case of “TLPGRISRERRGHLLLLGLDRVAKRNAFDLPMLDDLVAALGEYEADDQLRCALLFAHGEHFTAGLDLANVGETFRQGWKLPEGAVDPWGTFGGRRPSKPLVVAVQGYCYTIGIELMLAADINLCASNARFAQLEVQRGILPFGGATLRMHQVAGWGNAMRWLLTGDEFDAHEAYRLGLVQEVTAPEDLLDHAIALAERVAAQAPLGVRATLGSARQALLEGEAVAAAALPEAARRLLDSEDAKEGLRALQERRPGRFE”, the protein production entry was “failed”.
Turning to “TPGRGSRVTDQGICPKHQEALKLFCEVDEEAICVVCRESRSHKQHSVVPL”, the protein production entry is given as “not failed”.
In the case of “TPIINDPETVKLFLLTELQHEEREVFMVLFLDNQHRLIKKERLFLGTIYVSAVYPREIIKEALYCNAAALILAHNHPSGITEPSYSDQLITKKIQDAAELMEIRVLDHLIVGKSDCYSFAENCLL”, the protein production entry is “failed”.
Then “TPSRVEAFDNSNIHGTDPVSAMVTFLDGKPSKNDYRKYKIKTVEGPDDYATMREVIRRRYWRVLKEGLPMPDLILIDGGKGQIDSAKDVLTNELGLDIPVAGLAKDDKHRTSQLLFGDPLEIVPLERNSQEFYLLQRMQDEVHRFAITFHRQLRSKTGFQSILDGIPG”, with “failed”; and “TQNLREKQEIAKRAACDIQDHECIFLDAGSSTFELIQYIEAKDITVVTNGMTHVEELLKHGIKTLMVGGQVKPTTMATVGANALETLRRYCFDRAFIGMNGIDVKYGLTTPDEQEALIKETAMKLSNHKYVLVDQSKFNQIYFARVSILDGLSIITSQKAMQSKMTEAYMNEFNFIGGKS”, with “failed”; and “TQSNLYSFLKAISNRFSQYNYSSILCVTSISFDIFILETLFPIFMGKTCVFASDEEIEDISKLTQLIRIYQVDTIQSTPSRWGIFTEDEQLMTLLKERLKLVLVGGEKLTKNIAEKLLSIGGKLINLYGPTEATVWAFASEVTDPNQIYLGEP”, with “failed”.
Then “TRMAPVIMVPGSSASQNRFDSLITELGKETPKKHSVLKLTVQTDGTIKYSGSIAANDNEPFIVIGFANNRDGKANIDKQAVWLNTAFKALVKTYHFNHFYALGHSNGGLIWTLFLERYLKESPKVHIDRLMTIASPYNMESTSTTAKTSMFKELYRYRTGLPESLTVYSIAGTENYTSDGTVPYNSVNYGKYIFQDQVKHFTEITVTGANTAHSDLPQNKQIVSLIRQYLLAETMPDK”, with “not failed”.
Then “TRMAPVIMVPGSSASQNRFDSLITELGKETPKKHSVLKLTVQTDGTIKYSGSIAANDNEPFIVIGFANNRDGKANIDKQAVWLNTAFKALVKTYHFNHFYALGHSNGGLIWTLFLERYLKESPKVHIDRLMTIASPYNMESTSTTAKTSMFKELYRYRTGLPESLTVYSIAGTENYTSDGTVPYNSVNYGKYIFQDQVKHFTEITVTGANTAHSDLPQNKQIVSLIRQYLLAETMPDKVRQKNAQRVQN”, with “not failed”.
“TVLYVHGGAWFQDPLENHFEYLDLLVDALDARVIMPVYPKIPHRDYRTTFELLTKIYKRLLTKIDEPENLVIIGDSAGGQIALAFAQMLKKEQLSQPGHIVLISPVLDATFKNPEARKYEKEDPMLGIDGSKYLVELWAGDAPLDDYKMSPMNGDLEGLGHITLTVGTKETLYPDAVKFSHMLNDKGIKHQFIPGYNLFHIYPLFPIPERQRFLEQLKKII”: the protein production entry is “failed”.
The value for “VAARPPALCKGCSHRDVYDALNEVLTEYPNGRVFSDIGCYTLGALPPYEAINSCVDMGASITMAKGAADAGLFPAVSVIGDSTFTHSGITGLLDAINENSNITVIISDNESISMTGGQHSSAYGKVEAICRGIGVDPDHIRELLPVPKNHDELCSIIREEINYEGVSVIIPRRVCIQKHARDAKAAKRAKAKE” was “failed”; that for “VADASDPIRPLVEALNAEAPLKLWSVLVTCLGDVSRDGVIEVSGVALSSFVERMGLQPQAMRVALHRLKRDGWVESRRLGRVGFHRLSDSALTQTRAVAGRIYGPGAGPAPWHLAGMPPDAPDGLSLLPDTLSATPISRRFALICGPLEDVPEDWLLTAPSGRGLPVWVQDVVVEAGCEAEFKALERTLAQIDKVPDTRLERFTLRVLVLHAWRRLILRSSPAAEAALGGARAEISCRARVHQLLDQLGSVEPDWDLPATEDAAS” was “not failed”.
As for “VALCVLRRSDGRVVLENTLSQQWLGNGSERDQLCSGWIEQAFDPARPNSSDYFETADGRHLYLSSAPTRYNGEDVLFCAFSDISARKQIEAALEEAKRLADTANEAKTLFLATMSHEIRTPLYGVLGTLELLSRTQ”, the protein production entry is “failed”.
With “VARTAEEQANHDLVIEMYNKVLIAMDSSAVDRYIAPGYVQHSSLAEPSVEALKGFLDRVRAESPDARQTIHRSFVDGDHVITHTHVERWPGDAGLAVVDIFRVEGGMIVEHWDVIQDVPANPVNPNSMF”, the protein production entry is on record as “not failed”.
The value for “VDKINPDLRVHLRLDRGEAILSLDLSGHSLHQRGYRLQQGAAPLKENLAAAILIRAGWPRIAAEGGALADPMCGVGTFLVEAGMIAADIAPNIKRERWGFSAWLGHVPTLWRKLHDEALARAEAGLAKTPSWIRGYEADPRLIQPGRNNIERAGLSDWIKVYQGEVATFEPRPDQNQKGLVICNPPYGERLGDEASLLYLYQNLGERLRQACLNWEAAVFTGAPDLGKRMGIRSHKQYSFWNGALPCKLLLIKVTPDQF” was “failed”.

The values above are taken from a protein production outcome set (Wang et al. 2014).
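Also: failed if final PepcDB status was selected cloned or expressed and not failed if soluble or beyond.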
